Assay results as given in patent US20220119534A1 (DRAGONFLY THERAPEUTICS, published 2022).
Several values for one entry are separate records, joined by “and”; a condition that tells them apart may be missing. Equal values may be shown once. Read-outs that look alike come from different tables or passages of the source.

T1: human CLEC12A on cells (HL60, PL21, Ba/F3-hCLEC12A) (human, UniProt Q5QGZ9 1-265)
T1 construct: Endogenous on the AML lines HL60 and PL21; brought into mouse Ba/F3 cells by retroviral transduction; The cell line stands under assay; also called CLL-1
T1 sequence: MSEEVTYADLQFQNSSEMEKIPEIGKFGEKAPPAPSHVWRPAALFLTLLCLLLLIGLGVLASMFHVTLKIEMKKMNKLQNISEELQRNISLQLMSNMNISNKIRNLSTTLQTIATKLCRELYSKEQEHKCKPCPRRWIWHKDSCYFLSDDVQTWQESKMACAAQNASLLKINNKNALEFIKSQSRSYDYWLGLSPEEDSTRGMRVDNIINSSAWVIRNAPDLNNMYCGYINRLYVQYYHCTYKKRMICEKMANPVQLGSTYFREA

T2: Human CLEC12A-His (human, UniProt Q5QGZ9 65-265)
T2 construct: Recombinant soluble protein made in house; also called hCLEC12A-His; hCLEC12A; not shown: His tag
T2 sequence: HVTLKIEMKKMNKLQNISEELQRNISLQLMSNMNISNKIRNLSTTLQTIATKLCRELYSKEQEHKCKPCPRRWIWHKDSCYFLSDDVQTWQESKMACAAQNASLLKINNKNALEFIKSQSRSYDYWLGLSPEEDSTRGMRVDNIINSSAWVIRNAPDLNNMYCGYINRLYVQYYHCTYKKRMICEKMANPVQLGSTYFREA

T3: recombinant human CLEC12A-His (human, UniProt Q5QGZ9 65-265)
T3 construct: also called hCLEC12A-His; hCLEC12A
T3 sequence: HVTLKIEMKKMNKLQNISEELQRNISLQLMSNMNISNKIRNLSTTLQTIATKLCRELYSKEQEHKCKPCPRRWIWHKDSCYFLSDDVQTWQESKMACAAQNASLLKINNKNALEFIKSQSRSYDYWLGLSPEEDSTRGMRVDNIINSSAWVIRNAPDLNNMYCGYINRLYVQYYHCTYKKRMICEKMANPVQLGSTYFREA

T4: human CLEC12A-K244Q-His (human, UniProt Q5QGZ9 65-265)
T4 construct: Polymorphic variant; also called hCLEC12A-K244Q; CLEC12A (Q244)
T4 chain: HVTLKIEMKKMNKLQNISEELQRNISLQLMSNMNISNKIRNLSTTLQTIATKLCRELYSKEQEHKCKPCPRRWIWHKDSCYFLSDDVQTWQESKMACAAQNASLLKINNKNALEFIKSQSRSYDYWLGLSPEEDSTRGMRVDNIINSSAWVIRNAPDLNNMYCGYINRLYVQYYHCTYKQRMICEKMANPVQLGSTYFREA

B1: AB0192 TriNKET (other)
chain: EVQLVESGGGVVQPGGSLRLSCAASGFTFNAFGMHWVRQAPGKCLEWVAFISSGSTSIYYANTVKGRFTISRDNSKNTLYLQMNSLRAEDTAVYYCARDGYPTGGAMDYWGQGTSVTVSSGGGGSGGGGSGGGGSGGGGSDIQMTQSPSSLSASVGDRVTITCKASQDIYNYLSWFQQKPGKAPKPLIYRANILVSGVPSRFSGSGSGQDYTFTISSLQPEDIATYYCLQFDAFPFTFGCGTKLEIKGSDKTHTCPPCPAPELLGGPSVFLFPPKPKDTLMISRTPEVTCVVVDVSHEDPEVKFNWYVDGVEVHNAKTKPREEQYNSTYRVVSVLTVLHQDWLNGKEYKCKVSNKALPAPIEKTISKAKGQPREPRVYTLPPCRDELTKNQVSLTCLVKGFYPSDIAVEWESNGQPENNYKTTPPVLVSDGSFTLYSKLTVDKSRWQQGNVFSCSVMHEALHNHYTQKSLSLSPG
heavy: EVQLVESGGGLVKPGGSLRLSCAASGFTFSSYSMNWVRQAPGKGLEWVSSISSSSSYIYYADSVKGRFTISRDNAKNSLYLQMNSLRAEDTAVYYCARGAPIGAAAGWFDPWGQGTLVTVSSASTKGPSVFPLAPSSKSTSGGTAALGCLVKDYFPEPVTVSWNSGALTSGVHTFPAVLQSSGLYSLSSVVTVPSSSLGTQTYICNVNHKPSNTKVDKKVEPKSCDKTHTCPPCPAPELLGGPSVFLFPPKPKDTLMISRTPEVTCVVVDVSHEDPEVKFNWYVDGVEVHNAKTKPREEQYNSTYRVVSVLTVLHQDWLNGKEYKCKVSNKALPAPIEKTISKAKGQPREPQVCTLPPSRDELTENQVSLTCLVKGFYPSDIAVEWESNGQPENNYKTTPPVLDSDGSFFLYSWLTVDKSRWQQGNVFSCSVMHEALHNHYTQKSLSLSPG
light: DIQMTQSPSSVSASVGDRVTITCRASQGISSWLAWYQQKPGKAPKLLIYAASSLQSGVPSRFSGSGSGTDFTLTISSLQPEDFATYYCQQGVSFPRTFGGGTKVEIKRTVAAPSVFIFPPSDEQLKSGTASVVCLLNNFYPREAKVQWKVDNALQSGNSQESVTEQDSKDSTYSLSSTLTLSKADYEKHKVYACEVTHQGLSSPVTKSFNRGEC
notes: the condition stands under assay; also called AB0192 Lot AB0192-005
B2: F3'-1602 TriNKET (other)
chain: QLQLQESGPGLVKPSETLSLTCTVSGFSLTNYGLHWIRQPPGKCLEWIGVIWSGGKTDYNPSLKSRVTISKDTSKNQFSLKLSSVQAADTAVYYCAKYDYDDSLDYWGQGTLVTVSSGGGGSGGGGSGGGGSGGGGSDIQMTQSPSSLSASVGDRVTITCHASQNINFWLSWYQQKPGKAPKLLIYEASNLHTGVPSRFSGSGSGTRFTLTISSLQPEDIATYYCQQSHSYPLTFGCGTKLEIKGSDKTHTCPPCPAPELLGGPSVFLFPPKPKDTLMISRTPEVTCVVVDVSHEDPEVKFNWYVDGVEVHNAKTKPREEQYNSTYRVVSVLTVLHQDWLNGKEYKCKVSNKALPAPIEKTISKAKGQPREPRVYTLPPCRDELTKNQVSLTCLVKGFYPSDIAVEWESNGQPENNYKTTPPVLVSDGSFTLYSKLTVDKSRWQQGNVFSCSVMHEALHNHYTQKSLSLSPG
heavy: EVQLVESGGGLVKPGGSLRLSCAASGFTFSSYSMNWVRQAPGKGLEWVSSISSSSSYIYYADSVKGRFTISRDNAKNSLYLQMNSLRAEDTAVYYCARGAPIGAAAGWFDPWGQGTLVTVSSASTKGPSVFPLAPSSKSTSGGTAALGCLVKDYFPEPVTVSWNSGALTSGVHTFPAVLQSSGLYSLSSVVTVPSSSLGTQTYICNVNHKPSNTKVDKKVEPKSCDKTHTCPPCPAPELLGGPSVFLFPPKPKDTLMISRTPEVTCVVVDVSHEDPEVKFNWYVDGVEVHNAKTKPREEQYNSTYRVVSVLTVLHQDWLNGKEYKCKVSNKALPAPIEKTISKAKGQPREPQVCTLPPSRDELTENQVSLTCLVKGFYPSDIAVEWESNGQPENNYKTTPPVLDSDGSFFLYSWLTVDKSRWQQGNVFSCSVMHEALHNHYTQKSLSLSPG
light: DIQMTQSPSSVSASVGDRVTITCRASQGISSWLAWYQQKPGKAPKLLIYAASSLQSGVPSRFSGSGSGTDFTLTISSLQPEDFATYYCQQGVSFPRTFGGGTKVEIKRTVAAPSVFIFPPSDEQLKSGTASVVCLLNNFYPREAKVQWKVDNALQSGNSQESVTEQDSKDSTYSLSSTLTLSKADYEKHKVYACEVTHQGLSSPVTKSFNRGEC
notes: CLEC12A scFv-Fc, NKG2D A49MI Fab-Fc, human IgG1 Fc; also called AB0237

Tests used:
[1] = molecular target: T1, human CLEC12A on cells (HL60, PL21, …); test: flow cytometry, 40 nM, MFI after 2 h 37 C relative to 2 h on ice, PL21 cells
Procedure: Test articles were used at saturation concentrations and detected using a human IgG Fc-specific secondary antibody. Staining intensity after two hours at 37° C. was normalized to staining intensity of the same test article on cells incubated for two hours on ice to derive the percentage of CLEC12A retained on cell surfaces. Data bars represent the average of duplicate wells and error bars represent standard deviation.
100,000 cells were seeded per well into duplicate 96-well plates for FACS staining. Cells were washed with FACS buffer. Test articles were diluted to 40 nM and were added to each of the duplicate plates. The first plate was incubated on ice for 2 hours, while the second plate was moved to 37° C. for two hours. After the incubation, cells were washed with PBS and cells were incubated in a 1:2000 dilution of live/dead dye in PBS for 15 minutes, then washed with FACS buffer. Anti-human IgG-Fc secondary antibody was diluted into FACS buffer, and 50 μl was added per well for detection of the bound TriNKETs or mAbs. Cells were incubated for 20 minutes on ice, then washed with FACS buffer. 50 μl of fixation buffer was added to each well, and cells were incubated for 10 minutes at room temperature. Cells were washed with FACS buffer and resuspended in FACS buffer for analysis with BD FACS Celesta SN #H66034400085, or BD FACS Celesta SN #H66034400160. Cells of interest were identified using FSC vs. SSC plot, and an appropriately shaped gate was drawn around the cells. Within the gated cells, doublet cells were removed by viewing FSC-H vs FSC-A plot. Within the single cell population, live cells were gated. […] Surface retention was then calculated as follows:

Cynomolgus CD64 = molecular target: T5, Cynomolgus CD64 (cynomolgus monkey, UniProt A0A2K5U901 33-309, Probably biotinylated for capture, as in the sister examples (p-1094).); test: SPR, cynomolgus CD64 captured
T5 construct: Bought recombinant receptor; also called cFcγRI; Cynomolgus CD64 (FcγRI); not shown: The vendor's biotinylation and purification tag

Human CD16a V158 = molecular target: T6, Human CD16a V158 (human, UniProt P08637 17-208, biotinylated); test: SPR, hCD16a V158 captured, kinetic fit
T6 construct: Bought recombinant receptor; also called hCD16a (V158); hFcγRIIIa V158

Human CLEC12A-His [2] = molecular target: T2, Human CLEC12A-His; test: SPR, hCLEC12A (K244) WT
Human CLEC12A-His [3] = molecular target: T2, Human CLEC12A-His; test: SPR; taken as the sample after forced oxidation (0.02% H2O2, 24 h)
[4] = molecular target: T3, recombinant human CLEC12A-His; test: SPR
human CLEC12A-K244Q-His = molecular target: T4, human CLEC12A-K244Q-His; test: SPR
[5] = molecular target: T3, recombinant human CLEC12A-His; test: SPR; remark: listed apart in the source

T5 sequence (A0A2K5U901 entry or part of it limits assumed): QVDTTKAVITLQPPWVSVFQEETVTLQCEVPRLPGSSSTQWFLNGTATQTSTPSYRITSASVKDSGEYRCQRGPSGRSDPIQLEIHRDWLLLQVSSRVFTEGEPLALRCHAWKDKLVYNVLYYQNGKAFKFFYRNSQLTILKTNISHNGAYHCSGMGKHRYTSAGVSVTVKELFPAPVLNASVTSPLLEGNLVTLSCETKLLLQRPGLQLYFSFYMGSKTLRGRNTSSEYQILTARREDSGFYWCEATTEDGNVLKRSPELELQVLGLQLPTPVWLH
T6 sequence (P08637 17-208 F176V limits assumed): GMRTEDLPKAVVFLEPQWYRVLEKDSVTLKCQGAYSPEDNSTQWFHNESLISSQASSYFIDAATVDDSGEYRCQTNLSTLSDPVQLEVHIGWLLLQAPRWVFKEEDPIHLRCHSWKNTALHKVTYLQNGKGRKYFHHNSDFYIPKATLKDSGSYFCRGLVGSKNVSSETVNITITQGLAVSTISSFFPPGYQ

| Binder | percent surface retention [1] | Kd (Cynomolgus CD64) | koff (Cynomolgus CD64) | kon (Cynomolgus CD64) | Kd (Human CD16a V158) | koff (Human CD16a V158) | kon (Human CD16a V158) | Kd (Human CLEC12A-His [2]) | koff (Human CLEC12A-His [2]) | kon (Human CLEC12A-His [2]) | Kd (Human CLEC12A-His [3]) | koff (Human CLEC12A-His [3]) | kon (Human CLEC12A-His [3]) | Kd [4] | Kd (human CLEC12A-K244Q-His) | koff (human CLEC12A-K244Q-His) | kon (human CLEC12A-K244Q-His) | Kd [5] | koff [5] | kon [5] |
| --- | --- | --- | --- | --- | --- | --- | --- | --- | --- | --- | --- | --- | --- | --- | --- | --- | --- | --- | --- | --- |
| B1 | 101% | 2.2 nM and 1.5 nM and 1.9 nM and 2.1 nM | 0.00012 s⁻¹ and 0.00011 s⁻¹ | 54000 M⁻¹ s⁻¹ and 80000 M⁻¹ s⁻¹ and 57000 M⁻¹ s⁻¹ and 55000 M⁻¹ s⁻¹ | 184 nM and 173 nM and 177 nM | 0.019 s⁻¹ and 0.0201 s⁻¹ and 0.0206 s⁻¹ | 103000 M⁻¹ s⁻¹ and 116000 M⁻¹ s⁻¹ | 1.65 nM | 0.00115 s⁻¹ | 698000 M⁻¹ s⁻¹ | 1.71 nM | 0.00132 s⁻¹ | 775000 M⁻¹ s⁻¹ |  |  |  |  |  |  |  |
| B2 |  |  |  |  |  |  |  |  |  |  |  |  |  | 0.8 nM | 0.77 nM | 0.000436 s⁻¹ | 565000 M⁻¹ s⁻¹ | 0.6 nM | 0.000496 s⁻¹ | 826000 M⁻¹ s⁻¹ |
